The target in experiment [1] is T1, cynomolgus PSMA (ACRO) (cynomolgus, UniProt A0A2K5VNZ0 44-750).
T1 construct: Immobilised on the Biacore chip
The experiment in a line: SPR Biacore, immobilised cynomolgus PSMA, 37 C, 1:1 fit. As for the experimental part:
(§1) PSMA-BsAb Biacore Settings. Human PSMA antigen was immobilized directly on Fc2 at 3000 RU, and cynomolgus PSMA (ACRO) on Fc4 at 3000 RU (Blank on Fc1 and Fc3 as controls). Abs were run through the system at 37° C., at concentrations of 250 and 500 nM, with association time 1 min, dissociation time 15 min. Regeneration was performed at 30 mM NaOH. All data were fitted with 1:1 model.

Experiment [2] concerns the target PSMA on PSMA(+) human prostate cancer cell lines (LNCaP-AR, PC3-PIP, CWR22, VCaP) (human, UniProt Q04609 1-750). The experiment in a line: cell-based or functional assay.
Experiment [3] deals with PSMA on PSMA(+) canine osteosarcoma cell lines (D-17, DSN, DAN, DSDh) (canine, UniProt I4IY07 29-779). The experiment in a line: cell-based or functional assay.
Experiment [4] has as its target T2, Human PSMA antigen (human, UniProt Q04609 44-750, limits assumed).
T2 construct: This is the antigen immobilised on the Biacore chip; also called FOLH1_HUMAN
Put plainly: SPR Biacore, immobilised human PSMA, 37 C, 1:1 fit. As for the experimental part: as §1

Experiment [5] has as its target T2, Human PSMA antigen. Put plainly: SPR (Biacore), 37 C, antibody over immobilized PSMA. An excerpt:
The calculated kinetic parameters derived from SPR are shown in FIG. 4C, showing distinct differences in affinities when compared to the chimeric and the original mouse antibody J591. Increased affinity of anti-PSMA antibodies should translate into higher potency, while lower affinity anti-PSMA antibodies into lower toxicity. This affinity modulation is achieved without altering the CDR sequences. Based on the binding kinetics, the clone having combination of J591_VL-1 and J591_VH-3, which has near identical binding kinetics to those of J591 chimeric antibody, was chosen to build the PSMA-BsAb (BC244) of the present technology. The amino acid sequences of the light chain (SEQ ID NO: 11) and the heavy chain (SEQ ID NO: 12) of the select clone are shown in FIG. 12. Mutation N297A was used to remove glycosylation, and K322A to minimize complement activation.
A general note: SPR reads the build-up and loss of mass on a sensor chip optically.

As a reminder, the Kd is the free concentration of one partner at which half of the binding sites on the other are occupied at equilibrium, for simple one-to-one binding. The koff is the rate constant with which the complex falls apart. One may read the kon as the rate constant with which the complex forms.

Several values for one entry are separate records, joined by “and”; a condition that tells them apart may be missing. Equal values may be shown once.

Sequence of PSMA on PSMA(+) canine osteosarcoma cell lines (D-17, DSN, DAN, DSDh) (I4IY07 entry or part of it limits assumed): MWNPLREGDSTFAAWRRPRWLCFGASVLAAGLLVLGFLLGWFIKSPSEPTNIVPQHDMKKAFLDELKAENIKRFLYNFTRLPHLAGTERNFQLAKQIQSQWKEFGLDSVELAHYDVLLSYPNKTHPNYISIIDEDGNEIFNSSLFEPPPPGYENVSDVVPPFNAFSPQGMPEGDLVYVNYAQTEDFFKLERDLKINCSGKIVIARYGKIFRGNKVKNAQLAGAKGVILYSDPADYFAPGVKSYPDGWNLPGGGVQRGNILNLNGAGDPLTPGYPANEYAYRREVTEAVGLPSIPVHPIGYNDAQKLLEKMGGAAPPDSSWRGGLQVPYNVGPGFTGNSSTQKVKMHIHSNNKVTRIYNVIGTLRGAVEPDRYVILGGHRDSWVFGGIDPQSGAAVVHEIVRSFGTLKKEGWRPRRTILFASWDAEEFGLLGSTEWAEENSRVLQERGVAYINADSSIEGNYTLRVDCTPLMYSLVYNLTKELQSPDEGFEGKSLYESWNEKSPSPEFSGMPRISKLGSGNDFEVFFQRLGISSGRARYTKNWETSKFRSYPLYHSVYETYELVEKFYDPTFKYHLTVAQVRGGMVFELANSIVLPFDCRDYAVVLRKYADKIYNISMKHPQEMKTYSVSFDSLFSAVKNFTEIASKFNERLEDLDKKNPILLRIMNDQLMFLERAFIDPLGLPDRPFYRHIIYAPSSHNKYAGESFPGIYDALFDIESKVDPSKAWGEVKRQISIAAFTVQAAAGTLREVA
T2 sequence (Q04609 44-750 limits assumed): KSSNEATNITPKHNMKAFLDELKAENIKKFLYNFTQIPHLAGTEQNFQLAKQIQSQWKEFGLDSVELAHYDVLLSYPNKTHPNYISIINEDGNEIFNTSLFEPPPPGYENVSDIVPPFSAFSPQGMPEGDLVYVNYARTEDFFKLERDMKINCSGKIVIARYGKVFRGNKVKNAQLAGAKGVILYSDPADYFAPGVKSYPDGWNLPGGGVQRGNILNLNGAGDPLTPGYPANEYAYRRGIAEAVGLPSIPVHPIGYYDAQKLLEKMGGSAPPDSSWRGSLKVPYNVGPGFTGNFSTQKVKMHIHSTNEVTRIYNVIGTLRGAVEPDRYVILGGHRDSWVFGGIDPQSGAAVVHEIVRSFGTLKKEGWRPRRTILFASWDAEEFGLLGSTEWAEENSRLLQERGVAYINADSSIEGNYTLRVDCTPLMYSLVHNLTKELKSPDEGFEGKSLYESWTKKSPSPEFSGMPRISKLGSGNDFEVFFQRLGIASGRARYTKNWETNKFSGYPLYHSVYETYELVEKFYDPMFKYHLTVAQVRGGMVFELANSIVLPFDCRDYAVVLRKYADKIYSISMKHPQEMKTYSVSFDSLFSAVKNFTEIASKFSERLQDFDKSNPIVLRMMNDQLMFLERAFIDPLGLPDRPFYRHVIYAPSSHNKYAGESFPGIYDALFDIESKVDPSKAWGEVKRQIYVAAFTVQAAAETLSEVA
Sequence of PSMA on PSMA(+) human prostate cancer cell lines (LNCaP-AR, PC3-PIP, CWR22, VCaP) (Q04609 whole entry): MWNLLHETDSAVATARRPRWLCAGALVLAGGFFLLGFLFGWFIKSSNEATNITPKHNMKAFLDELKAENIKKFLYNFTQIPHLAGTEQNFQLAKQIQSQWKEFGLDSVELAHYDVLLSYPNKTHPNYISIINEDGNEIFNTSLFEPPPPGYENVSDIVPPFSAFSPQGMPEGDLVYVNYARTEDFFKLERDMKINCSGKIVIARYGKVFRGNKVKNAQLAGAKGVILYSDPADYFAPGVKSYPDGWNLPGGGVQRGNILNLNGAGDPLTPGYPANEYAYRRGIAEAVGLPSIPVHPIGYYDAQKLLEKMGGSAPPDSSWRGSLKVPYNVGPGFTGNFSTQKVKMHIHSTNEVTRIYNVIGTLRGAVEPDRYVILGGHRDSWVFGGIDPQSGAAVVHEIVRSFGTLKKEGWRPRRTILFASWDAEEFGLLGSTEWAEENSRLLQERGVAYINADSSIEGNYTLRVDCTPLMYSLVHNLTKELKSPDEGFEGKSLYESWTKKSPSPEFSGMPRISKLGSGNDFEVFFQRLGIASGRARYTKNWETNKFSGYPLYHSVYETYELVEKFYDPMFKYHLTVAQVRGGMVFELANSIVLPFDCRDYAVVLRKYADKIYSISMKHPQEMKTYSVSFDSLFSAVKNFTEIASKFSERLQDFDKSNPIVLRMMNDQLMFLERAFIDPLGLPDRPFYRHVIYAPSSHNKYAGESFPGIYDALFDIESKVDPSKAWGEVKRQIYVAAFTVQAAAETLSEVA

B1: humanized anti-PSMAxCD3 BsAb BC244 (H3L1) (bispecific antibody, human IgG1, kappa, N297A)
light: DIQLTQSPSFLSASVGDRVTITCRASQDVGTALDWYQQKPGKAPKLLIYWASTLHSGVPSRFSGSGSGTEFTLTISSLQPEDFATYYCQQYNSYPLTFGQGTKLEIKRTVAAPSVFIFPPSDEQLKSGTASVVCLLNNFYPREAKVQWKVDNALQSGNSQESVTEQDSKDSTYSLSSTLTLSKADYEKHKVYACEVTHQGLSSPVTKSFNRGECTSGGGGSGGGGSGGGGSQVQLVQSGGGVVQPGRSLRLSCKASGYTFTRYTMHWVRQAPGKCLEWIGYINPSRGYTNYNQKFKDRFTISRDNSKNTAFLQMDSLRPEDTGVYFCARYYDDHYSLDYWGQGTPVTVSSGGGGSGGGGSGGGGSGGGGSGGGGSGGGGSDIQMTQSPSSLSASVGDRVTITCSASSSVSYMNWYQQTPGKAPKRWIYDTSKLASGVPSRFSGSGSGTDYTFTISSLQPEDIATYYCQQWSSNPFTFGCGTKLQITR
heavy: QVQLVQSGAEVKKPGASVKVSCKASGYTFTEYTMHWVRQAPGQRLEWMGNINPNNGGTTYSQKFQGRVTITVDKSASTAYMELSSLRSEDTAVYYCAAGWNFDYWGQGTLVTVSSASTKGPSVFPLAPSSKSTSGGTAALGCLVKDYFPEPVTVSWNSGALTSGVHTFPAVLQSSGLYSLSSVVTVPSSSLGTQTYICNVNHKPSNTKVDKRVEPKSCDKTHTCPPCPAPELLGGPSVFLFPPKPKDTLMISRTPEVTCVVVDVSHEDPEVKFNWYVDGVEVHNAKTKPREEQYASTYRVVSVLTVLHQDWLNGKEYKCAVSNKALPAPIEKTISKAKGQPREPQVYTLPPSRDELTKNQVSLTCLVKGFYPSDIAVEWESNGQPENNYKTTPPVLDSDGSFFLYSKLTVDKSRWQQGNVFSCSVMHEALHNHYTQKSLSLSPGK
notes: IgG(L)-scFv format, J591_VL-1 + J591_VH-3; also called PSMA-BsAb
Regarding B1, in experiment [1], the Kd is 2.79 nM, the koff was determined as 0.000329 s⁻¹, the kon stood at 118000 M⁻¹ s⁻¹ and the “t ½” value turned out to be 35.1 min. Further, in experiment [2], the “EC50, ADTC (4-hour 51Cr release), LNCaP-AR cells” value was 0.000761 µg/mL and 3.81 pM; the “EC50, ADTC (4-hour 51Cr release), PC3-PIP cells” value was 2.1e-05 µg/mL and 107 fM; the “EC50, ADTC (4-hour 51Cr release), VCaP cells” value is 0.0163 µg/mL and 81.7 pM. Besides, in experiment [3], the “EC50, ADTC (4-hour 51Cr release), D-17 cells” value came out at 0.106 nM; the “EC50, ADTC (4-hour 51Cr release), DAN cells” value came out at 0.102 nM; the “EC50, ADTC (4-hour 51Cr release), DSDh cells” value amounted to 0.152 nM; the “EC50, ADTC (4-hour 51Cr release), DSN cells” value is 0.0703 nM. In experiment [4], the Kd was 1.18 nM, the koff was found to be 0.000162 s⁻¹, the kon amounted to 138000 M⁻¹ s⁻¹ and the “t ½” value is 71.2 min.

B2: anti-PSMAxhuC825 clone BC193 (PSMA K322) (bispecific antibody)
light: DIQLTQSPSFLSASVGDRVTITCRASQDVGTALDWYQQKPGKAPKLLIYWASTLHSGVPSRFSGSGSGTEFTLTISSLQPEDFATYYCQQYNSYPLTFGQGTKLEIKRTVAAPSVFIFPPSDEQLKSGTASVVCLLNNFYPREAKVQWKVDNALQSGNSQESVTEQDSKDSTYSLSSTLTLSKADYEKHKVYACEVTHQGLSSPVTKSFNRGECTSGGGGSGGGGSGGGGSHVQLVESGGGLVQPGGSLRLSCAASGFSLTDYGVHWVRQAPGKGLEWLGVIWSGGGTAYNTALISRFTISRDNSKNTLYLQMNSLRAEDTAVYYCARRGSYPYNYFDAWGCGTLVTVSSGGGGSGGGGSGGGGSGGGGSGGGGSGGGGSQAVVTQEPSLTVSPGGTVTLTCGSSTGAVTASNYANWVQQKPGQCPRGLIGGHNNRPPGVPARFSGSLLGGKAALTLLGAQPEDEAEYYCALWYSDHWVIGGGTKLTVLG
heavy: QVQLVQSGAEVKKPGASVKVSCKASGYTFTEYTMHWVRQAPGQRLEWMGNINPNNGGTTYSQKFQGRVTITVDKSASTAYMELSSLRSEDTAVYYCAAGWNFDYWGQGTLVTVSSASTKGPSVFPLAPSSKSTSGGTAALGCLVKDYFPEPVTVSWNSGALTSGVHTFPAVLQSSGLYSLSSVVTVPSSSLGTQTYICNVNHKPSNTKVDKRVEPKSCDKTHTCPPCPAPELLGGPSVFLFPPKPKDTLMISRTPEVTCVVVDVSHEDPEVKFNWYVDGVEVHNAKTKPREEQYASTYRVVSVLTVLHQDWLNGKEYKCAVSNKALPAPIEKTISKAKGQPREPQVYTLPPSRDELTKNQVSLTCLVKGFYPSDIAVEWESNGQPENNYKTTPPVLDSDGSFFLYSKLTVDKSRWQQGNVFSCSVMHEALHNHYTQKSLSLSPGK
In the case of B2, in experiment [1], binding was characterised by a dissociation constant (Kd) of 4.88 nM, the koff stood at 0.000209 s⁻¹, the kon came to 42900 M⁻¹ s⁻¹ and the “t ½” value was found to be 55.2 min. For the same molecule, in experiment [4], the Kd was found to be 2.15 nM, the koff is 0.00021 s⁻¹, the kon stood at 97500 M⁻¹ s⁻¹ and the “t ½” value worked out at 55 min.

B3: 10J5-chimeric J591 (antibody, V domains shown)
VH: EVQLQQSGPELVKPGTSVRISCKTSGYTFTEYTIHWVKQSHGKSLEWIGNINPNNGGTTYNQKFEDKATLTVDKSSSTAYMELRSLTSEDSAVYYCAAGWNFDYWGQGTTLTVSS
VL: DIVMTQSHKFMSTSVGDRVSIICKASQDVGTAVDWYQQKPGQSPKLLIYWASTRHTGVPDRFTGSGSGTDFTLTITNVQSEDLADYFCQQYNSYPLTFGAGTMLDLKR
notes: also called J591 chimeric antibody
Regarding B3, in experiment [1], the Kd came to 3.71 nM, the koff came out at 0.000716 s⁻¹, the kon was 193000 M⁻¹ s⁻¹ and the “t ½” value was 16.1 min. In experiment [5], the Kd stood at 0.206 nM, the koff was determined as 1.21e-05 s⁻¹ and the kon amounted to 58500 M⁻¹ s⁻¹. In addition, in experiment [4], the Kd stood at 1.55 nM, the koff was determined as 0.000196 s⁻¹, the kon turned out to be 127000 M⁻¹ s⁻¹ and the “t ½” value turned out to be 58.8 min.

The record behind these values is US20230374150A1 (Memorial Sloan Kettering, published 2023).
